# Source: PMC10288612
# Target: HER-2/neu extracellular domain (ErbB2) (human, UniProt P04626 23-652)
# Assay: electrochemical bead sandwich assay
row,Binder,Kd
1,GCAGCGGTGTGGGG (ssDNA) [monomer],0.121 pM
2,TTTTTTGCAGCGGTGTGGGGGCAGCGGTGTGGGG (ssDNA) [dimer],0.0374 pM
3,TTTTTTTTTGCAGCGGTGTGGGG (ssDNA) [monomer-T (monomer-9T)],0.085 pM
4,GCAGCGGTGTGGGGGCAGCGGTGTGGGGGCAGCGGTGTGGGGTTTTT (ssDNA) [trimer],0.0261 pM
